From paper PMC3499988 (Biochemistry, 2011)
Where two headings read alike, the source gives them in different places.

Assays:
Test in all cases: SPR
HIV-1 YU-2 gp120 [1] = biological target: T1, HIV-1 YU-2 gp120 (HIV-1 (YU-2), UniProt P35961)
HIV-1 HXBc2 gp120 [2] = biological target: T2, HIV-1 HXBc2 gp120 (HIV-1 (HXBc2), UniProt P04578)
HIV-1 YU-2 gp120 [3] = biological target: T1, HIV-1 YU-2 gp120; remark: listed apart in the source
HIV-1 HXBc2 gp120 [4] = biological target: T2, HIV-1 HXBc2 gp120; remark: listed apart in the source
HIV-1 YU-2 gp120 [5] = biological target: T1, HIV-1 YU-2 gp120; remark: listed apart in the source
HIV-1 HXBc2 gp120 [6] = biological target: T2, HIV-1 HXBc2 gp120; remark: listed apart in the source
HIV-1 YU-2 gp120 [7] = biological target: T1, HIV-1 YU-2 gp120; remark: listed apart in the source

B1: Fab m18 K31A (LCDR1) (Fab, V domains shown)
VH: VQLLESGPGVVKPSETLSLTCTVSGASVNNYYWTWVRQPPGKGLEWIGNVYDSGDTNYNPSLSSRLSLSMDTSKNQFSLRLSSVTAADTATYYCARYHRHFIRGPLSFDYWGRGTLVTVSS
VL: LQMTQSPSFLSASVGDRVSITCRASQDIQAFLAWYQLTPGDAPKLLMYSASTLQSGVPSRFSGSGSGTEFTLTISGLQPEDFATYYCQHLKRYPYTFGQGTKLEIS
Kd (HIV-1 YU-2 gp120 [1]): 3.1 nM | koff (HIV-1 YU-2 gp120 [1]): 8.9e-05 s⁻¹ | kon (HIV-1 YU-2 gp120 [1]): 29000 ± 0.4 M⁻¹ s⁻¹ | Kd (HIV-1 HXBc2 gp120 [2]): 18.7 nM | koff (HIV-1 HXBc2 gp120 [2]): 0.00031 ± 1.1 s⁻¹ | kon (HIV-1 HXBc2 gp120 [2]): 17000 ± 0.5 M⁻¹ s⁻¹ | IC50 (HIV-1 YU-2 gp120 [3]): > 500 nM | IC50 (HIV-1 HXBc2 gp120 [4]): > 500 nM | IC50 (HIV-1 YU-2 gp120 [5]): > 500 nM | IC50 (HIV-1 HXBc2 gp120 [6]): > 500 nM

B2: Fab m18 F99Y (HCDR3) (Fab, V domains shown)
VH: VQLLESGPGVVKPSETLSLTCTVSGASVNNYYWTWVRQPPGKGLEWIGNVYDSGDTNYNPSLSSRLSLSMDTSKNQFSLRLSSVTAADTATYYCARYHRHYIRGPLSFDYWGRGTLVTVSS
VL: LQMTQSPSFLSASVGDRVSITCRASQDIQKFLAWYQLTPGDAPKLLMYSASTLQSGVPSRFSGSGSGTEFTLTISGLQPEDFATYYCQHLKRYPYTFGQGTKLEIS
Kd (HIV-1 YU-2 gp120 [1]): 1.1 nM | koff (HIV-1 YU-2 gp120 [1]): 0.00011 ± 0.9 s⁻¹ | kon (HIV-1 YU-2 gp120 [1]): 94000 ± 2.5 M⁻¹ s⁻¹ | Kd (HIV-1 HXBc2 gp120 [2]): 0.9 nM | koff (HIV-1 HXBc2 gp120 [2]): 9.2e-05 s⁻¹ | kon (HIV-1 HXBc2 gp120 [2]): 100000 ± 0.03 M⁻¹ s⁻¹ | IC50 (HIV-1 YU-2 gp120 [3]): 53.7 ± 1.5 nM | IC50 (HIV-1 HXBc2 gp120 [4]): 62.8 ± 12.3 nM | IC50 (HIV-1 YU-2 gp120 [5]): 75.3 ± 20.6 nM | IC50 (HIV-1 HXBc2 gp120 [6]): 66.7 ± 6.1 nM

B3: Fab m18 S52A (LCDR2) (Fab, V domains shown)
VH: VQLLESGPGVVKPSETLSLTCTVSGASVNNYYWTWVRQPPGKGLEWIGNVYDSGDTNYNPSLSSRLSLSMDTSKNQFSLRLSSVTAADTATYYCARYHRHFIRGPLSFDYWGRGTLVTVSS
VL: LQMTQSPSFLSASVGDRVSITCRASQDIQKFLAWYQLTPGDAPKLLMYSAATLQSGVPSRFSGSGSGTEFTLTISGLQPEDFATYYCQHLKRYPYTFGQGTKLEIS
Kd (HIV-1 YU-2 gp120 [1]): 4.7 nM | koff (HIV-1 YU-2 gp120 [1]): 8.1e-05 s⁻¹ | kon (HIV-1 YU-2 gp120 [1]): 17000 ± 0.9 M⁻¹ s⁻¹ | Kd (HIV-1 HXBc2 gp120 [2]): 0.6 nM | koff (HIV-1 HXBc2 gp120 [2]): 2e-05 s⁻¹ | kon (HIV-1 HXBc2 gp120 [2]): 35000 ± 2.1 M⁻¹ s⁻¹ | IC50 (HIV-1 YU-2 gp120 [3]): ≥ 500 nM | IC50 (HIV-1 HXBc2 gp120 [4]): > 360 nM | IC50 (HIV-1 YU-2 gp120 [5]): > 500 nM | IC50 (HIV-1 HXBc2 gp120 [6]): > 360 nM

B4: Fab m18 I100A (HCDR3) (Fab, V domains shown)
VH: VQLLESGPGVVKPSETLSLTCTVSGASVNNYYWTWVRQPPGKGLEWIGNVYDSGDTNYNPSLSSRLSLSMDTSKNQFSLRLSSVTAADTATYYCARYHRHFARGPLSFDYWGRGTLVTVSS
VL: LQMTQSPSFLSASVGDRVSITCRASQDIQKFLAWYQLTPGDAPKLLMYSASTLQSGVPSRFSGSGSGTEFTLTISGLQPEDFATYYCQHLKRYPYTFGQGTKLEIS
Kd (HIV-1 YU-2 gp120 [1]): 13.1 nM | koff (HIV-1 YU-2 gp120 [1]): 0.00036 ± 1.4 s⁻¹ | kon (HIV-1 YU-2 gp120 [1]): 27000 ± 1.3 M⁻¹ s⁻¹ | Kd (HIV-1 HXBc2 gp120 [2]): 2.8 nM | koff (HIV-1 HXBc2 gp120 [2]): 4.6e-05 s⁻¹ | kon (HIV-1 HXBc2 gp120 [2]): 17000 ± 0.07 M⁻¹ s⁻¹ | IC50 (HIV-1 YU-2 gp120 [3]): > 500 nM | IC50 (HIV-1 HXBc2 gp120 [4]): > 500 nM | IC50 (HIV-1 YU-2 gp120 [5]): > 500 nM | IC50 (HIV-1 HXBc2 gp120 [6]): > 500 nM

B5: Fab m18 F99A (HCDR3) (Fab, V domains shown)
VH: VQLLESGPGVVKPSETLSLTCTVSGASVNNYYWTWVRQPPGKGLEWIGNVYDSGDTNYNPSLSSRLSLSMDTSKNQFSLRLSSVTAADTATYYCARYHRHAIRGPLSFDYWGRGTLVTVSS
VL: LQMTQSPSFLSASVGDRVSITCRASQDIQKFLAWYQLTPGDAPKLLMYSASTLQSGVPSRFSGSGSGTEFTLTISGLQPEDFATYYCQHLKRYPYTFGQGTKLEIS
binding result (HIV-1 YU-2 gp120 [7]): binds | Kd (HIV-1 YU-2 gp120 [1]): 5.9 nM | koff (HIV-1 YU-2 gp120 [1]): 0.00026 ± 1.5 s⁻¹ | kon (HIV-1 YU-2 gp120 [1]): 45000 ± 2.5 M⁻¹ s⁻¹ | Kd (HIV-1 HXBc2 gp120 [2]): 1.3 nM | koff (HIV-1 HXBc2 gp120 [2]): 0.00013 ± 0.1 s⁻¹ | kon (HIV-1 HXBc2 gp120 [2]): 100000 ± 0.02 M⁻¹ s⁻¹ | IC50 (HIV-1 YU-2 gp120 [3]): > 500 nM | IC50 (HIV-1 HXBc2 gp120 [4]): 58.2 ± 4.3 nM | IC50 (HIV-1 YU-2 gp120 [5]): > 500 nM | IC50 (HIV-1 HXBc2 gp120 [6]): 69.5 ± 3.7 nM
